Data taken from US20090047262.

Tests used:
[1] = test system: T1, FLAG epitope-tagged CIITA IF1 protein (f:CIITA1)
T1 sequence: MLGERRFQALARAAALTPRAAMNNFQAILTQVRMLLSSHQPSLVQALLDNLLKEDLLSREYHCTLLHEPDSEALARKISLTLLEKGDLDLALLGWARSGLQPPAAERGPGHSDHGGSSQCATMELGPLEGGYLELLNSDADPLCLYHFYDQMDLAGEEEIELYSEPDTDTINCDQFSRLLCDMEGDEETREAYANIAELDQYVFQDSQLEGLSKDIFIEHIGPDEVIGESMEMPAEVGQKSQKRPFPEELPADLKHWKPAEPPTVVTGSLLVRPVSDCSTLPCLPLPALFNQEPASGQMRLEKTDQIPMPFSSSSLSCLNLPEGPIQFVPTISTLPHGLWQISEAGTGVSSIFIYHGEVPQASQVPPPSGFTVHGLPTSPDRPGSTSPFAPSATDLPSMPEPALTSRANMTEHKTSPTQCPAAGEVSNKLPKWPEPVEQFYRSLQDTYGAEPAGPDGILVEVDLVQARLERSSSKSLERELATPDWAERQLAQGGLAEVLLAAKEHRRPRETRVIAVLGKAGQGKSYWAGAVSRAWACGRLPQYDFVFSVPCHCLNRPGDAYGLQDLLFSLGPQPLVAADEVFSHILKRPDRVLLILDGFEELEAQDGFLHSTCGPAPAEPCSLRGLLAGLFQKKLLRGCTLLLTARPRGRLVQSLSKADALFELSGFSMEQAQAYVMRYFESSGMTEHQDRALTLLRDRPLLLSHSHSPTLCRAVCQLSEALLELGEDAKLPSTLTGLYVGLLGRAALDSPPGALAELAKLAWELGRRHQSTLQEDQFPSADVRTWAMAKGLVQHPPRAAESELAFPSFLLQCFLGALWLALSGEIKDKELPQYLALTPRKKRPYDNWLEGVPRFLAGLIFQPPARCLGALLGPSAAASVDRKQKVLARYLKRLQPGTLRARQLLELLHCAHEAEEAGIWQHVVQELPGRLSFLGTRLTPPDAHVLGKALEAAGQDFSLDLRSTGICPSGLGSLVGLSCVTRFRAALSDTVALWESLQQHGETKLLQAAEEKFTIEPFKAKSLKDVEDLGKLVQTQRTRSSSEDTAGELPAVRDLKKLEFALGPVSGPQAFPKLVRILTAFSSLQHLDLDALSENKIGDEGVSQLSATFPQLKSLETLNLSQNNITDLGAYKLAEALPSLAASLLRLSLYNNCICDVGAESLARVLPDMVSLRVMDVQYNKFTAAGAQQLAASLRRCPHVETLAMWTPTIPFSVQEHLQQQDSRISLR

[2] = test system: mutant f:CIITA1(S357A) protein (FLAG epitope-tagged CIITA isoform 1 with serine 357 changed to alanine)

Erk1/2 kinase
in vitro kinase assay, appearance of the upper (phosphorylated) band [1]: as indicated by the appearance of the upper band, Erk1/2 phosphorylated f:CIITA1 protein
in vitro kinase assay, appearance of the upper (phosphorylated) band [2]: Erk1/2 did not phosphorylate the mutant f:CIITA1(S357A) protein, which was confirmed by the absence of the upper band
